From US20240352121A1, “LAIR-1 AGONISTIC ANTIBODIES AND METHODS OF USE THEREOF” (NEXTCURE, INC., priority 2023, published 2024)

Legend:
Assay type in all cases: cell-based, human
MV4-11-Luc cells = assay: In-vitro phagocytosis (ADCP) assay, mouse bone marrow macrophages with MV4-11-Luc cells; conditions: 20 μg/ml, 16 hours
Protocol: Mouse BMM was generated with 100 ng/ml M-CSF (Cat #416-ML-500) using seed BMM cells at 1e5/well in 24 well plate. Stain was done with Cell trace violet (Thermofisher). Target MV411 cells were labeled with PKH26 (Sigma #PKH26gl-1kt) according to manufacturer's instructions and cocultured with BMM at ratio of 5:1 in presence of 20 μg/ml h11B3 or control antibody for 16 hours. Phagocytosis was analyzed by flow cytometry.

AML PBMCs = assay: ADCC assay, AML patient PBMCs with healthy donor NK cells; conditions: 3:1 Target:Effector ratio, 4 hours
Protocol: ADCC was measured using the CytoTox 96® Non-Radioactive Cytotoxicity Assay (Promega) following the manufacturer's instructions. Briefly, AML patient PBMCs were mixed with healthy donor NK cells at a 3:1 Target:Effector ratio in complete RPMI containing the indicated concentration of soluble h11B3 or Fc-G1 isotype control. Mixed cells were incubated for 4 hours at 37 deg C. Test wells were run in quadruplicate. AML PBMCs-Donor #200018616, newly diagnosed/untreated. NK cells-Healthy Donor #83, isolated from PBMCs via StemCell Kit #17955 following manufacturer's instructions. CytoTox 96® Non-Radioactive Cytotoxicity Assay Promega Cat #G1780. % Cytotoxicity quantified by target cell LDH release. % Cytotoxicity=((Test Well LDH Release−Effector Cell Spontaneous Release−Target Cell Spontaneous Release)/(Target Cell Max Release−Target Cell Spontaneous Release))*100. Target Cells=AML PBMCs Donor #200018616; Effector Cells=NK cells isolated from healthy Donor #83 PBMCs. […] ADCC was measured using the Toxilight Bioluminescent Cytotoxicity Assay (Lonza)) following the manufacturer's instructions. […] Toxilight Bioluminescent Cytotoxicity Assay kit Lonza Cat #LT17-217. % Cytotoxicity quantified by target cell adenylate kinase release; ADCC calculated as described above. […]

[1] = system: blood leukocytes from healthy (non-AML) donors; assay: Ex vivo depleting assay, healthy donor blood leukocytes; conditions: even in the presence of collagen ECM
Protocol: Fresh whole blood was RBC-depleted using the EasySep™ RBC Depletion Reagent (StemCell, Vancouver, BC) following the manufacturer's protocol. Alternatively, frozen PBMCs were thawed in pre-warmed cRPMI media. Cell number was determined by VI-Cell XR cell counter. 2e5 cells per well were plated into 96-well plates lacking or containing 50 μg/mL pre-coated human Collagen I (StemCell, Vancouver, BC) in 200 μL of cRPMI containing 10 μg/mL of soluble LAIR-1 mAb or isotype control antibody (NP782 (NextCure, Beltsville, MD) or InVivoMAb recombinant human IgG1 Fc (BioXcell, Lebanon, NH)). Plates were centrifuged at 100×g for 2 minutes, then incubated for 20 hours at 37° C. in a TC incubator. At the end of incubation period, plates were centrifuged at 500×g for 4 min. Cells were resuspended and then transferred to a 96-well round-bottom plate for cell staining and flow cytometry as described above.

[2] = system: healthy T cells or NK cells; assay: Ex vivo killing of T cells or NK cells of a VEN/AZA-treated AML patient; conditions: same patient sample
Protocol: Ex vivo killing of VEN/AZA-treated AML patient leukemic cells (FIG. 7A) or T cells or NK cells (FIG. 7B). Values normalized to vehicle control. Lines represent linear regression of NC525 concentration versus normalized cell killing. […] FIGS. 7D and 7E show in vivo leukemic growth as measured by whole-body luminescence of MV4-11-luciferase cells (FIG. 7D) or survival (FIG. 7E) of CDX mice treated with 10 mg/kg isotype control (gray) or NC525 (red) or 100 mg/kg VEN (pink) or 0.5 mg/kg AZA (blue) or combination therapy (green or yellow, respectively). BLoD, below limit of detection. n=9 mice per group. P values determined by 2-way ANOVA or log-rank (Mantel-Cox) test, respectively. FIGS. 7F and 7G show leukemic growth in the blood (FIG. 7F) and in the spleen and BM (FIG. 7G) at week 8 after transplant of AML PDX mice treated with vehicle (gray), VEN/AZA (blue), NC525 (red), or VEN/AZA plus NC525 (green). n=5-10 mice per group. AML cells in spleen and BM compared from 4-5 mice per group. Data are shown as the mean±SEM. P values determined by 2-way ANOVA or 1-way ANOVA with multiple comparisons.

B1: LAIR-1 mAb: humanized agonist anti-LAIR-1 mAb, IgG1 backbone; h11B3 VL-2 (SEQ ID NO: 16), h11B3 VH-3 (SEQ ID NO: 27) (antibody, V domains shown)
VH: EVQLVESGGGLVQPGGSLKLSCAASGFTFNTNAMYWVRQAPGKGLEWVGRIRSKSSNYATYYAASVKGRFTISRDDSKNTLYLQMNSLKTEDTAVYYCVRGGSGFFAYWGQGTLVTVSS
VL: DIQMTQSPSSLSASLGDRVTITCKASEDIYIRLAWYQQKPGKAPRLLISTATSLETGVPSRFSGSGSGTDYTFTISSLQPEDIATYYCQQYWSTPYTFGGGTRLEIK
modifications: IgG1 constant regions; Synthetic: h11B3 VH-3; Synthetic: h11B3 VL-2
MV4-11-Luc cells
  ADCP activity: induces ADCP activity
AML PBMCs
  ADCC: induces AML cell death through antibody dependent cytotoxicity (ADCC)
[1]
  depletion of blood leukocytes: did not deplete
[2]
  impact on healthy T cells or NK cells: no impact
